# From patent US11549123B2, “Plant EPSP synthases and methods of use” (PIONEER HI-BRED INTERNATIONAL, INC., priority 2015, dated 2023)
# Columns and labels:
# [1] = substrate: C=C(OP(=O)(O)O)C(=O)O; assay: EPSPS substrate saturation kinetics, native sorghum; format: biochemical, Sorghum halepense; conditions: other: PEP varied; pH 7.0
# Experimental: (§1) EPSPS activity was determined by quantifying the phosphate generated from the EPSPS reaction. Release of inorganic phosphate was coupled to reaction with 2-amino-6-mercapto-7-methylpurine ribonucleoside, catalyzed by purine-nucleoside phosphorylase (M R Webb, Proc. Natl. Acad. Sci. 89:4884-4887, 1992). The absorbance change that occurs was monitored at 360 nm, where the extinction is 11,200 M^−1 cm^−1, with a Spectramax plate reader (Molecular Devices). To determine kinetic parameters, the varied substrate was present at seven concentrations (the eighth being the blank, containing no substrate) ranging from 4 to 400 uM and the unvaried substrate present at saturation. […] Reactions were monitored with a Spectramax plate reader. […] KI was then calculated from the following form of the Michaelis-Menten equation for competitive inhibition: KI=KM[I]/(KM app−KM) KM approximates the dissociation constant of the enzyme-substrate complex while kcat is the rate of conversion of substrate to product when the substrate concentration is saturating. kcat/KM is a widely accepted parameter for catalytic efficiency when substrate concentration is low (˜KM). […] The parameter kcat/KM×KI is used to quantify both catalytic efficiency and insensitivity and thus the overall fitness of the enzyme.
# (§2) Native EPSPS amino acid sequences of rice (Oryza sativa) (SEQ ID NO:7), sorghum (Sorghum halepense) (SEQ ID NO:8), and sunflower (Helianthus annus) (SEQ ID NO:9) including the chloroplast transit peptide sequences were assembled and analyzed for mapping the corresponding amino acid mutations from the maize 868-H6. […]
# (§3) ChloroP Prediction Server (Emanuelsson, O. et al. 1999. Protein Sci. 8(5):978-84) was used to approximate the amino terminus of the mature EPSPS proteins. […] The synthetic genes were cloned into a plasmid vector and expressed, purified and analyzed as described in Example 1.
# [2] = substrate: C=C(OP(=O)(O)O)C(=O)O; assay: Substrate saturation kinetic analysis with glyphosate, Zm-T103A; format: biochemical, Zea mays; conditions: other: substrate saturation
# [3] = substrate: C=C(OP(=O)(O)O)C(=O)O; assay: EPSPS substrate saturation kinetics, 868-H6; format: biochemical, Zea mays; conditions: other: PEP varied; pH 7.0
# Experimental: (§4) EPSPS activity was determined by quantifying the phosphate generated from the EPSPS reaction. Release of inorganic phosphate was coupled to reaction with 2-amino-6-mercapto-7-methylpurine ribonucleoside, catalyzed by purine-nucleoside phosphorylase (M R Webb, Proc. Natl. Acad. Sci. 89:4884-4887, 1992). The absorbance change that occurs was monitored at 360 nm, where the extinction is 11,200 M^−1 cm^−1, with a Spectramax plate reader (Molecular Devices). To determine kinetic parameters, the varied substrate was present at seven concentrations (the eighth being the blank, containing no substrate) ranging from 4 to 400 uM and the unvaried substrate present at saturation. Six microliters of 50-fold concentrated stock solutions of the varied substrate were placed in the wells of the 96-well assay plate and reactions were started with the addition of a mixture containing 25 mM Hepes, pH 7, 100 mM KCl, 0.3 mM 2-amino-6-mercapto-7-methylpurine ribonucleosde, 1 uM (1 unit/ml) purine-nucleoside phosphorylase (Sigma N8264) and 200 uM of the non-varied substrate. Reactions were monitored with a Spectramax plate reader. The Michaelis-Menten kinetics protocol of the Spectramax software was customized for the substrate concentrations used. The software returns values of KM and Vmax using the Lineweaver-Burke transformation of the Michaelis-Menten equation. To determine kcat, Vmax (uM/min) was divided by the enzyme concentration (uM). […] KI was then calculated from the following form of the Michaelis-Menten equation for competitive inhibition: KI=KM[I]/(KM app−KM) KM approximates the dissociation constant of the enzyme-substrate complex while kcat is the rate of conversion of substrate to product when the substrate concentration is saturating. kcat/KM is a widely accepted parameter for catalytic efficiency when substrate concentration is low (˜KM). […] The parameter kcat/KM×KI is used to quantify both catalytic efficiency and insensitivity and thus the overall fitness of the enzyme.
# (§5) From the functional diversity identified for each, combinatorial libraries were constructed and screened. […]
# [4] = substrate: C=C(OP(=O)(O)O)C(=O)O; assay: EPSPS substrate saturation kinetics, 123-C1; format: biochemical, Zea mays; conditions: other: PEP varied; pH 7.0
# Experimental: as §4, with “enzyme. […]” for “enzyme.”
# [5] = substrate: C=C(OP(=O)(O)O)C(=O)O; assay: EPSPS substrate saturation kinetics, sorghum H6; format: biochemical, Sorghum halepense; conditions: other: PEP varied; pH 7.0
# Experimental: as §1, §2, §3
# [6] = substrate: C=C(OP(=O)(O)O)C(=O)O; assay: EPSPS substrate saturation kinetics, 771-C2; format: biochemical, Zea mays; conditions: other: PEP varied; pH 7.0
# Experimental: as §4, §5
# [7] = substrate: C=C(OP(=O)(O)O)C(=O)O; assay: EPSPS substrate saturation kinetics, rice H6; format: biochemical, Oryza sativa; conditions: other: PEP varied; pH 7.0
# Experimental: as §1, §2, §3
# [8] = substrate: C=C(OP(=O)(O)O)C(=O)O; assay: EPSPS substrate saturation kinetics, sunflower H6; format: biochemical; conditions: other: PEP varied; pH 7.0
# Experimental: as §1, §2, §3
protein,measurement,setting,value
"Sorghum halepense EPSPS, native, SEQ ID NO:8 (Sorghum halepense) (protein) AAGAEEIVLQPIKEISGTVKLPGSKSLSNRILLLAALSEGTTVVDNLLNSEDVHYMLGALNTLGLSVEADKVAKRAVVVGCGGKFPVEDAKEEVQLFLGNAGTAMRPLTAAVTAAGGNATYVLDGVPRMRERPIGDLVVGLKQLGADVDCFLGTDCPPVRINGIGGLPGGKVKLSGSISSQYLSALLMAAPLALGDVEIEIIDKLISIPYVEMTLRLMERFGVKAEHSDSWDRFYIKGGQKYKSPKNAYVEGDASSASYFLAGAAITGGTVTVEGCGTTSLQGDVKFAEVLEMMGAKVTWTETSVTVTGPPRQPFGRKHLKAIDVNMNKMPDVAMTLAVVALFADGPTAIRDVASWRVKETERMVAIRTELTKLGASVEEGPDYCIITPPEKLNVTAIDTYDDHRMAMAFSLAACAEVPVTIRDPGCTRKTFPDYFDVLSTFVKN",Km,[1],17.4 µM
same,kcat,[1],50.9 s⁻¹
same,kcat/Km,[1],2.93e+06 M⁻¹ s⁻¹
"Zea mays EPSPS variant Zm-T103A (Zea mays; T102A) (protein, native maize plus T103A; E. coli BL21(DE3), Ni-NTA purified) MAGAEEIVLQPIKEISGTVKLPGSKSLSNRILLLAALSEGTTVVDNLLNSEDVHYMLGALRTLGLSVEADKAAKRAVVVGCGGKFPVEDAKEEVQLFLGNAGAAMRPLTAAVTAAGGNATYVLDGVPRMRERPIGDLVVGLKQLGADVDCFLGTDCPPVRVNGIGGLPGGKVKLSGSISSQYLSALLMAAPLALGDVEIEIIDKLISIPYVEMTLRLMERFGVKAEHSDSWDRFYIKGGQKYKSPKNAYVEGDASSASYFLAGAAITGGTVTVEGCGTTSLQGDVKFAEVLEMMGAKVTWTETSVTVTGPPREPFGRKHLKAIDVNMNKMPDVAMTLAVVALFADGPTAIRDVASWRVKETERMVAIRTELTKLGASVEEGPDYCIITPPEKLNVTAIDTYDDHRMAMAFSLAACAEVPVTIRDPGCTRKTFPDYFDVLSTFVKN",Km,[2],292 µM
same,kcat,[2],7.52 s⁻¹
"Zea mays EPSPS variant 868-H6 (A2R, A4W, A72Q, K84R, L98C, G102A, I208L, T279A, E302S, T361S, E391G, D402G, A416G, V438R, T441Q), SEQ ID NO:5 (Zea mays; … (protein) MRGWEEIVLQPIKEISGTVKLPGSKSLSNRILLLAALSEGTTVVDNLLNSEDVHYMLGALRTLGLSVEADKQAKRAVVVGCGGRFPVEDAKEEVQLFCGNAATAMRPLTAAVTAAGGNATYVLDGVPRMRERPIGDLVVGLKQLGADVDCFLGTDCPPVRVNGIGGLPGGKVKLSGSISSQYLSALLMAAPLALGDVEIEIIDKLISLPYVEMTLRLMERFGVKAEHSDSWDRFYIKGGQKYKSPKNAYVEGDASSASYFLAGAAITGGTVTVEGCGTASLQGDVKFAEVLEMMGAKVTWTSTSVTVTGPPREPFGRKHLKAIDVNMNKMPDVAMTLAVVALFADGPTAIRDVASWRVKESERMVAIRTELTKLGASVEEGPDYCIITPPGKLNVTAIDTYGDHRMAMAFSLAACGEVPVTIRDPGCTRKTFPDYFDRLSQFVKN",Km,[3],24.0 µM
same,kcat,[3],6.43 s⁻¹
same,kcat/Km,[3],268000 M⁻¹ s⁻¹
"Zea mays EPSPS variant 123-C1 (A2R, A4W, K84R, L98C, G102A, I208L, K243E, E391P, D402G), SEQ ID NO:6 (Zea mays; A1R/A3W/D401G/E390P/G101A/I207L/K242E/K83R/L97C) (protein) MRGWEEIVLQPIKEISGTVKLPGSKSLSNRILLLAALSEGTTVVDNLLNSEDVHYMLGALRTLGLSVEADKAAKRAVVVGCGGRFPVEDAKEEVQLFCGNAATAMRPLTAAVTAAGGNATYVLDGVPRMRERPIGDLVVGLKQLGADVDCFLGTDCPPVRVNGIGGLPGGKVKLSGSISSQYLSALLMAAPLALGDVEIEIIDKLISLPYVEMTLRLMERFGVKAEHSDSWDRFYIKGGQKYESPKNAYVEGDASSASYFLAGAAITGGTVTVEGCGTTSLQGDVKFAEVLEMMGAKVTWTETSVTVTGPPREPFGRKHLKAIDVNMNKMPDVAMTLAVVALFADGPTAIRDVASWRVKETERMVAIRTELTKLGASVEEGPDYCIITPPPKLNVTAIDTYGDHRMAMAFSLAACAEVPVTIRDPGCTRKTFPDYFDVLSTFVKN",Km,[4],24.2 µM
same,kcat,[4],7.3 s⁻¹
same,kcat/Km,[4],302000 M⁻¹ s⁻¹
"Sorghum halepense EPSPS with 868-H6 mutations, SEQ ID NO:12 (Sorghum halepense; … (protein) ARGWEEIVLQPIKEISGTVKLPGSKSLSNRILLLAALSEGTTVVDNLLNSEDVHYMLGALNTLGLSVEADKQAKRAVVVGCGGRFPVEDAKEEVQLFCGNAATAMRPLTAAVTAAGGNATYVLDGVPRMRERPIGDLVVGLKQLGADVDCFLGTDCPPVRINGIGGLPGGKVKLSGSISSQYLSALLMAAPLALGDVEIEIIDKLISLPYVEMTLRLMERFGVKAEHSDSWDRFYIKGGQKYKSPKNAYVEGDASSASYFLAGAAITGGTVTVEGCGTASLQGDVKFAEVLEMMGAKVTWTSTSVTVTGPPRQPFGRKHLKAIDVNMNKMPDVAMTLAVVALFADGPTAIRDVASWRVKESERMVAIRTELTKLGASVEEGPDYCIITPPGKLNVTAIDTYGDHRMAMAFSLAACGEVPVTIRDPGCTRKTFPDYFDRLSQFVKN",Km,[5],30.6 µM
same,kcat,[5],5.28 s⁻¹
same,kcat/Km,[5],167000 M⁻¹ s⁻¹
"Zea mays EPSPS variant 771-C2 (A4W, H54M, L98C, G102A, K173R, I208L, K243E, E302S, T361S, E391P, D402G, A416G, V438R, S440R, T441Q, F442V), SEQ ID NO:4 (Zea … (protein) MAGWEEIVLQPIKEISGTVKLPGSKSLSNRILLLAALSEGTTVVDNLLNSEDVMYMLGALRTLGLSVEADKAAKRAVVVGCGGKFPVEDAKEEVQLFCGNAATAMRPLTAAVTAAGGNATYVLDGVPRMRERPIGDLVVGLKQLGADVDCFLGTDCPPVRVNGIGGLPGGKVRLSGSISSQYLSALLMAAPLALGDVEIEIIDKLISLPYVEMTLRLMERFGVKAEHSDSWDRFYIKGGQKYESPKNAYVEGDASSASYFLAGAAITGGTVTVEGCGTTSLQGDVKFAEVLEMMGAKVTWTSTSVTVTGPPREPFGRKHLKAIDVNMNKMPDVAMTLAVVALFADGPTAIRDVASWRVKESERMVAIRTELTKLGASVEEGPDYCIITPPPKLNVTAIDTYGDHRMAMAFSLAACGEVPVTIRDPGCTRKTFPDYFDRLRQVVKN",Km,[6],21.0 µM
same,kcat,[6],5.8 s⁻¹
same,kcat/Km,[6],275000 M⁻¹ s⁻¹
"Oryza sativa EPSPS with 868-H6 mutations, SEQ ID NO:11 (Oryza sativa; A482G/A67R/A69W/D368S/D468G/E457G/G168A/I274L/K149R/L164C/T345A/T427S/T507Q/V137Q/V504R) (protein) APARKWEEIVLQPIREISGAVQLPGSKSLSNRILLLSALSEGTTVVDNLLNSEDVHYMLEALKALGLSVEADKQAKRAVVVGCGGRFPVEKDAKEEVQLFCGNAATAMRPLTAAVTAAGGNATYVLDGVPRMRERPIGDLVVGLKQLGADVDCFLGTECPPVRVKGIGGLPGGKVKLSGSISSQYLSALLMAAPLALGDVEIEIIDKLISLPYVEMTLRLMERFGVKAEHSDSWDRFYIKGGQKYKSPGNAYVEGDASSASYFLAGAAITGGTVTVQGCGTASLQGDVKFAEVLEMMGAKVTWTSTSVTVTGPPREPYGKKHLKAVDVNMNKMPDVAMTLAVVALFADGPTAIRDVASWRVKESERMVAIRTELTKLGASVEEGPDYCIITPPGKLNITAIDTYGDHRMAMAFSLAACGDVPVTIRDPGCTRKTFPNYFDRLSQFVRN",Km,[7],28.9 µM
same,kcat,[7],4.88 s⁻¹
same,kcat/Km,[7],167000 M⁻¹ s⁻¹
"Helianthus annuus EPSPS with 868-H6 mutations, SEQ ID NO:10 (Helianthus annuus; … (protein) ATTRKWSTAPEEIVLKPIKEISGTVNLPGSKSLSNRILLLAALAEGTTVVDNLLNSDDVHYMLGALRALGLNVEENGQIKRATVEGCGGRFPVGKEAKDEIQLFCGNAATAMRPLTAAVTAAGGNSSYILDGVPRMRERPIGDLVTGLKQLGADVDCFLGTNCPPVRVAANGGLPGGKVKLSGSISSQYLTALLMAAPLALGDVEIEIIDKLISLPYVEMTLKLMERFGVSVEHSDSWDKFYVRGGQKYKSPGNAYVEGDASSASYFLAGAAITGGTVTVEGCGTASLQGDVKFAEVLGQMGAEVTWTSNSVTVRGPPRNASGRGHLRPVDVNMNKMPDVAMTLAVVALYADGPTAIRDVASWRVKESERMIAICTELRKLGATVEEGPDYCVITPPGKLNVTAIDTYGDHRMAMAFSLAACGDVPVTIKDPGCTRKTFPDYFERLEQFTKH",Km,[8],37.2 µM
same,kcat,[8],3.52 s⁻¹
same,kcat/Km,[8],100000 M⁻¹ s⁻¹
